Data set [1] deals with T1, GRF9-CELD (Arabidopsis thaliana (Col-0?)) (UniProt Q8S9M3).
T1 sequence: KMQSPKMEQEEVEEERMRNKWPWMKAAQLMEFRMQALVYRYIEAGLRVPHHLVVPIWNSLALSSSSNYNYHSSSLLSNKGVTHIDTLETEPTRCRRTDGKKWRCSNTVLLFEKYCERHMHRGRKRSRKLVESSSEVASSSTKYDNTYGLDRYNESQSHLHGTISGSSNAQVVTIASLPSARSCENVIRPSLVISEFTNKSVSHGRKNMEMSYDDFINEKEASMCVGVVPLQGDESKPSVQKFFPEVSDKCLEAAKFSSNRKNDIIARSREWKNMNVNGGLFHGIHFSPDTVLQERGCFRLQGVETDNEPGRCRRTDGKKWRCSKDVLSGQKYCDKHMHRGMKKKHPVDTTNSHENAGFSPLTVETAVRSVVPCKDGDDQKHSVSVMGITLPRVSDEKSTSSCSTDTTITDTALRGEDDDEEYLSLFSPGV
As to the kind of experiment: CELD plate binding assay (streptavidin plate). As to conditions: CELD plate assay: 25 mM HEPES/KOH pH 7.0, 50 mM KCl, 0.5 mM DTT, 10 uM ZnCl2, 0.15 ug/ul herring sperm DNA, 0.3 mg/ml BSA, 10% glycerol, 0.025% NP-40, 2 pmol ….

The target in data set [2] is T2, GRF9-CELD (Arabidopsis thaliana, UniProt Q8S9M3 2-431).
T2 sequence: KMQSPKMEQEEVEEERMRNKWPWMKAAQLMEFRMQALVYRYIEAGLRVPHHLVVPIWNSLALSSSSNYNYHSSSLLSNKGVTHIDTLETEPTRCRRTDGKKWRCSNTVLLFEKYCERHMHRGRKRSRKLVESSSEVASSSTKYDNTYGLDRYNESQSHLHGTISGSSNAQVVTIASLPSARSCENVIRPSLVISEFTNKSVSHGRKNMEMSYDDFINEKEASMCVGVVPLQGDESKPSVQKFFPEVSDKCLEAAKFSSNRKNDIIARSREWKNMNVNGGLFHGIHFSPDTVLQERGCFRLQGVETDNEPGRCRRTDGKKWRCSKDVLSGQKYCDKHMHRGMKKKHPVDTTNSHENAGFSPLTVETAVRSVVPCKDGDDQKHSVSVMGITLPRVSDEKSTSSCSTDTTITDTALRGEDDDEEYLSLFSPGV
As to the kind of experiment: competition; molar excess vs labelled N10; CELD plate assay: 25 mM HEPES/KOH pH 7.0, 50 mM KCl, 0.5 mM DTT, 10 uM ZnCl2, 0.15 ug/ul herring sperm DNA, 0.3 mg/ml BSA, 10% glycerol, 0.025% NP-40, 2 pmol probe; binding temperature not stated; EMSA buffer not given (cited protocols). Particulars: protein: recombinant, tags: C-terminal CELD (cellulase D) fusion, 6xHis, label: none. (Mobility shift assays separate free from complexed probe on a gel.)

The target in data set [3] is T2, GRF9-CELD. As to the kind of experiment: EMSA; CELD plate assay: 25 mM HEPES/KOH pH 7.0, 50 mM KCl, 0.5 mM DTT, 10 uM ZnCl2, 0.15 ug/ul herring sperm DNA, 0.3 mg/ml BSA, 10% glycerol, 0.025% NP-40, 2 pmol probe; binding temperature not stated; EMSA buffer not given (cited protocols). Particulars: protein: recombinant; tags: C-terminal CELD (cellulase D) fusion, 6xHis; label: 5'-DY682; blunt.

Data set [4] concerns the target T2, GRF9-CELD. As to the kind of experiment: CELD plate binding assay (streptavidin plate); 10 uM ZnCl2; CELD plate assay: 25 mM HEPES/KOH pH 7.0, 50 mM KCl, 0.5 mM DTT, 10 uM ZnCl2, 0.15 ug/ul herring sperm DNA, 0.3 mg/ml BSA, 10% glycerol, 0.025% NP-40, 2 pmol probe; binding temperature not stated; EMSA buffer not given (cited protocols). Particulars: protein: recombinant; tags: C-terminal CELD (cellulase D) fusion, 6xHis; label: biotin.

Among the data in PMC6053248, “GROWTH-REGULATING FACTOR 9 negatively regulates arabidopsis leaf growth by controlling ORG3 and restricting cell proliferation in leaf primordia” are binding signal (relative to GRFE1), binding result and binding signal values, retold here.

The molecule “AGGTAAGTTACTGACACACTCCATTCTTGG (double strand) [GRFE15]” returned a binding signal (relative to GRFE1) in data set [1] of 0.8.

Molecule “CCGGTACTGGTCTGACATACCAGAACTTCA (double strand) [GRFE1]” registered a binding signal (relative to GRFE1) in data set [1] of 1.

B1: ORG3 EMSA competitor (dsDNA)
DNA 1: CTTTCACTTCATACAACCTGACACCAAATCATCCACATCA
DNA 2: TGTGGATGATTTGGTGTCAGGTTGTATGAAGTGAAAG
B1: in the data set with GRF9-CELD [2] (3' overhang 3 nt on strand 1 (so in the source)), the binding result is given as “binds”.

B2: ORG3 EMSA mutated competitor (dsDNA)
DNA 1: CTTTCACTTCATACAACCGGACACCAAATCATCCACATCA
DNA 2: TGATGTGGATGATTTGGTGTCCGGTTGTATGAAGTGAAAG
As for B2, the binding result with GRF9-CELD [2] (blunt) was “no binding”.

B3: ORG3 promoter 40-bp EMSA probe (dsDNA)
DNA 1: CTTTCACTTCATACAACCTGACACCAAATCATCCACATCA
DNA 2: TGATGTGGATGATTTGGTGTCAGGTTGTATGAAGTGAAAG
Take B3: the binding result with GRF9-CELD [3] was “binds”.

B4: GRFE1m4 (dsDNA)
DNA 1: CCGGTACTGGTGTGACATACCAGAACTTCA
DNA 2: TGAAGTTCTGGTATGTCACACCAGTACCGG
For the molecule B4, the binding signal with GRF9-CELD [4] was 0 relative to GRFE1.

B5: GRFE1m5 (dsDNA)
DNA 1: CCGGTACTGGTCTGACTTACCAGAACTTCA
DNA 2: TGAAGTTCTGGTAAGTCAGACCAGTACCGG
For B5, in the data set with GRF9-CELD [4], the binding signal was 0 relative to GRFE1.

B6: GRFE1m2 (dsDNA)
DNA 1: CCGGTACTGGCCTGACACACCAGAACTTCA
DNA 2: TGAAGTTCTGGTGTGTCAGGCCAGTACCGG
For the molecule B6, the binding signal with GRF9-CELD [4] was 0.43 ± 0.04 relative to GRFE1.

B7: GRFE1m6 (dsDNA)
DNA 1: CCGGTACTGGTCGGACATACCAGAACTTCA
DNA 2: TGAAGTTCTGGTATGTCCGACCAGTACCGG
For B7, in the data set with GRF9-CELD [4], the binding signal was 0 relative to GRFE1.

B8: GRFE1m1 (dsDNA)
DNA 1: CCGGTACTGGACTGACACACCAGAACTTCA
DNA 2: TGAAGTTCTGGTGTGTCAGTCCAGTACCGG
B8: the binding signal with GRF9-CELD [4] was 0.79 ± 0.03 relative to GRFE1.

B9: GRFE1m3 (dsDNA)
DNA 1: CCGGTACTGGTCTGACAAACCAGAACTTCA
DNA 2: TGAAGTTCTGGTTTGTCAGACCAGTACCGG
Consider B9, for which the binding signal with GRF9-CELD [4] is 0.89 ± 0.08 relative to GRFE1.

B10: GRFE1m7 (dsDNA)
DNA 1: CCGGTACTGGTCTGAGATACCAGAACTTCA
DNA 2: TGAAGTTCTGGTATCTCAGACCAGTACCGG
As for B10, the binding signal with GRF9-CELD [4] is 0 relative to GRFE1.
